Measurements from paper doi:10.1101/2024.06.13.598777, “Acetylation of the yeast Hsp40 chaperone protein Ydj1 fine-tunes proteostasis and translational fidelity” (bioRxiv, 2024).

B1: His-tagged Ydj1 wild-type, biotinylated (natural protein, yeast, UniProt P25491 1-409, looked up)
chain: MVKETKFYDILGVPVTATDVEIKKAYRKCALKYHPDKNPSEEAAEKFKEASAAYEILSDPEKRDIYDQFGEDGLSGAGGAGGFPGGGFGFGDDIFSQFFGAGGAQRPRGPQRGKDIKHEISASLEELYKGRTAKLALNKQILCKECEGRGGKKGAVKKCTSCNGQGIKFVTRQMGPMIQRFQTECDVCHGTGDIIDPKDRCKSCNGKKVENERKILEVHVEPGMKDGQRIVFKGEADQAPDVIPGDVVFIVSERPHKSFKRDGDDLVYEAEIDLLTAIAGGEFALEHVSGDWLKVGIVPGEVIAPGMRKVIEGKGMPIPKYGGYGNLIIKFTIKFPENHFTSEENLKKLEEILPPRIVPAIPKKATVDECVLADFDPAKYNRTRASRGGANYDSDEEEQGGEGVQCASQ
modifications: biotin (labeled with a 1.5-fold excess of NHS-PEG4-Biotin)
notes: Ydj1, yeast Hsp40; YDJ1 gene PCR amplified from yeast genomic DNA into pRSETA; A fragment lacking the J-domain (delta J) co-purifies with the recombinant protein; also called Ydj1-biotin; HIS-Ydj1; source: E. coli Rosetta (DE3), purified (Ni-sepharose, Superdex 200)
B2: His-tagged Ydj1 K23R, biotinylated (natural protein, yeast, UniProt P25491 1-409, looked up)
chain: MVKETKFYDILGVPVTATDVEIRKAYRKCALKYHPDKNPSEEAAEKFKEASAAYEILSDPEKRDIYDQFGEDGLSGAGGAGGFPGGGFGFGDDIFSQFFGAGGAQRPRGPQRGKDIKHEISASLEELYKGRTAKLALNKQILCKECEGRGGKKGAVKKCTSCNGQGIKFVTRQMGPMIQRFQTECDVCHGTGDIIDPKDRCKSCNGKKVENERKILEVHVEPGMKDGQRIVFKGEADQAPDVIPGDVVFIVSERPHKSFKRDGDDLVYEAEIDLLTAIAGGEFALEHVSGDWLKVGIVPGEVIAPGMRKVIEGKGMPIPKYGGYGNLIIKFTIKFPENHFTSEENLKKLEEILPPRIVPAIPKKATVDECVLADFDPAKYNRTRASRGGANYDSDEEEQGGEGVQCASQ
modifications: biotin (labeled with a 1.5-fold excess of NHS-PEG4-Biotin)
notes: Same construct as m5 with the mutation; source: E. coli Rosetta (DE3), purified (Ni-sepharose, Superdex 200)
B3: His-tagged Ydj1 K37R, biotinylated (natural protein, yeast, UniProt P25491 1-409, looked up)
chain: MVKETKFYDILGVPVTATDVEIKKAYRKCALKYHPDRNPSEEAAEKFKEASAAYEILSDPEKRDIYDQFGEDGLSGAGGAGGFPGGGFGFGDDIFSQFFGAGGAQRPRGPQRGKDIKHEISASLEELYKGRTAKLALNKQILCKECEGRGGKKGAVKKCTSCNGQGIKFVTRQMGPMIQRFQTECDVCHGTGDIIDPKDRCKSCNGKKVENERKILEVHVEPGMKDGQRIVFKGEADQAPDVIPGDVVFIVSERPHKSFKRDGDDLVYEAEIDLLTAIAGGEFALEHVSGDWLKVGIVPGEVIAPGMRKVIEGKGMPIPKYGGYGNLIIKFTIKFPENHFTSEENLKKLEEILPPRIVPAIPKKATVDECVLADFDPAKYNRTRASRGGANYDSDEEEQGGEGVQCASQ
modifications: biotin (labeled with a 1.5-fold excess of NHS-PEG4-Biotin)
notes: as for B2
B4: His-tagged Ydj1 K23Q, biotinylated (natural protein, yeast, UniProt P25491 1-409, looked up)
chain: MVKETKFYDILGVPVTATDVEIQKAYRKCALKYHPDKNPSEEAAEKFKEASAAYEILSDPEKRDIYDQFGEDGLSGAGGAGGFPGGGFGFGDDIFSQFFGAGGAQRPRGPQRGKDIKHEISASLEELYKGRTAKLALNKQILCKECEGRGGKKGAVKKCTSCNGQGIKFVTRQMGPMIQRFQTECDVCHGTGDIIDPKDRCKSCNGKKVENERKILEVHVEPGMKDGQRIVFKGEADQAPDVIPGDVVFIVSERPHKSFKRDGDDLVYEAEIDLLTAIAGGEFALEHVSGDWLKVGIVPGEVIAPGMRKVIEGKGMPIPKYGGYGNLIIKFTIKFPENHFTSEENLKKLEEILPPRIVPAIPKKATVDECVLADFDPAKYNRTRASRGGANYDSDEEEQGGEGVQCASQ
modifications: biotin (labeled with a 1.5-fold excess of NHS-PEG4-Biotin)
notes: Ydj1, yeast Hsp40, acetyl-mimic mutant; Same construct as m5 with the mutation; source: E. coli Rosetta (DE3), purified (Ni-sepharose, Superdex 200)

molecular target: T1, Ssa1 (purified) (yeast, UniProt P10591 1-642); assay: BLI; Ydj1-biotin (5 ug/ml) on streptavidin biosensors, Ssa1 1 uM in solution, 23 °C, 25 mM Hepes pH 7.5, 50 mM KCl, 2 mM DTT, 5 mM MgCl2, 0.5 mM ATP, 0.02% Tween-20; Octet R4; reference sensor subtracted; conditions: both partners purified
T1 construct: Ssa1, yeast Hsp70; also called Hsp70; source: isolated as previously described [51]
T1 sequence (P10591 whole entry): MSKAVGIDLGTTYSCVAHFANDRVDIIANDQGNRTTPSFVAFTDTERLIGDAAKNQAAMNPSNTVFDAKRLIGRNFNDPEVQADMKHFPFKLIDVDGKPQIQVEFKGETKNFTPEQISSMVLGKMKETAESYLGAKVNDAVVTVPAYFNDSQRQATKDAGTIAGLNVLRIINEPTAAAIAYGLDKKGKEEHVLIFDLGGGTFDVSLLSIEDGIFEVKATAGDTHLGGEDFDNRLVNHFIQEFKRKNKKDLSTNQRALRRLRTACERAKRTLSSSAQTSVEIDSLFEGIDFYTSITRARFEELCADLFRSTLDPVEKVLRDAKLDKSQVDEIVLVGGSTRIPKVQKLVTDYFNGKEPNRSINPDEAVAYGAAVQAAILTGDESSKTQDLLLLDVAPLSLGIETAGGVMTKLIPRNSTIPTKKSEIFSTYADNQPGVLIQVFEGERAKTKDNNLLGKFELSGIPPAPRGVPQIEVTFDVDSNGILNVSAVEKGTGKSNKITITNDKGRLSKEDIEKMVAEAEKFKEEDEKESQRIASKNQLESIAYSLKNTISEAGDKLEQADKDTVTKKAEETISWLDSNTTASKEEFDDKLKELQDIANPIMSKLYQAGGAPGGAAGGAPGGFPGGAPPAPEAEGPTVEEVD

Binding result, binds:
B1
B2
B3
B4
